The values that follow come from PMC4811591, “Role of the Substrate Specificity-Defining Residues of Human SIRT5 in Modulating the Structural Stability and Inhibitory Features of the Enzyme” (PLoS ONE, 2016).

A word on the Km: it is the concentration of substrate that gives half-maximal velocity. By kcat is commonly meant the number of substrate molecules converted per active site and unit of time at saturation. For orientation: kcat/Km means the turnover number divided by the Michaelis constant.

Format in all cases: biochemical, human
Substrate in series [1]: NC(=O)c1ccc[n+]([C@@H]2O[C@H](COP(=O)([O-])OP(=O)(O)OC[C@H]3O[C@@H](n4cnc5c(N)ncnc54)[C@H](O)[C@@H]3O)[C@@H](O)[C@H]2O)c1
Kind of series: SIRT5 wild type desuccinylation reaction, trypsin coupled fluorescence assay with Ac-SucLys-AMC. The settings on record: other: desuccinylation, succinyl substrate, 25°C, pH 8.0.
Experimental: (§1) The steady state rates of the enzyme catalyzed reactions were derived from the time dependent changes in the fluorescence signal, and the data were analyzed by the ternary complex kinetic mechanism (Eq 4) via Grafit 4 software.
(§2) The steady-state kinetic data were fitted globally by the competitive, mixed, and noncompetitive inhibition models using the DYNAFIT software based on the rapid-equilibrium approximation [43]. All the parameters were allowed to float except for the enzyme concentration. The software utilizes several model-discrimination criteria, including the second order Akaike Information Criterion (AIC) [44, 45], so that the best model out of the three different candidates could be identified.

Substrate in series [2]: NC(=O)c1ccc[n+]([C@@H]2O[C@H](COP(=O)([O-])OP(=O)(O)OC[C@H]3O[C@@H](n4cnc5c(N)ncnc54)[C@H](O)[C@@H]3O)[C@@H](O)[C@H]2O)c1
The experiment in a line: SIRT5 R105I deacetylation reaction, trypsin coupled assay with Fluor-de-lys. The settings on record: other: deacetylation, acetyl substrate; pH 8.0; 25.0 °C.
Experimental: as §1, §2

Substrate in series [3]: NC(=O)c1ccc[n+]([C@@H]2O[C@H](COP(=O)([O-])OP(=O)(O)OC[C@H]3O[C@@H](n4cnc5c(N)ncnc54)[C@H](O)[C@@H]3O)[C@@H](O)[C@H]2O)c1
The experiment in a line: SIRT5 Y102A/R105I deacetylation reaction, trypsin coupled assay with Fluor-de-lys. The settings on record: other: deacetylation, acetyl substrate; pH 8.0; 25.0 °C.
Experimental: The sirtuin catalyzed deacetylase and desuccinylase reactions were measured via the trypsin coupled assay system as described by Madsen et al [39]. […] Since trypsin was used as a coupling enzyme, its concentration was optimized to ensure the emergence of minimal or negligible lag-phase prior to the onset of the steady state phase [42]. […] The steady state rates of the enzyme catalyzed reactions were derived from the time dependent changes in the fluorescence signal, and the data were analyzed by the ternary complex kinetic mechanism (Eq 4) via Grafit 4 software.
as §2
Other reaction conditions were the same as described above. The data were fitted by Eq 5 by Grafit 4.0.

Substrate in series [4]: NC(=O)c1ccc[n+]([C@@H]2O[C@H](COP(=O)([O-])OP(=O)(O)OC[C@H]3O[C@@H](n4cnc5c(N)ncnc54)[C@H](O)[C@@H]3O)[C@@H](O)[C@H]2O)c1
The experiment in a line: SIRT5 Y102A deacetylation reaction, trypsin coupled assay with Fluor-de-lys. The settings on record: other: deacetylation, acetyl substrate; pH 8.0; 25.0 °C.
Experimental: as §1, §2

Substrate in series [5]: NC(=O)c1ccc[n+]([C@@H]2O[C@H](COP(=O)([O-])OP(=O)(O)OC[C@H]3O[C@@H](n4cnc5c(N)ncnc54)[C@H](O)[C@@H]3O)[C@@H](O)[C@H]2O)c1
The experiment in a line: SIRT5 Y102A desuccinylation reaction, trypsin coupled assay with Ac-SucLys-AMC. The settings on record: other: desuccinylation, succinyl substrate; pH 8.0; 25.0 °C.
Experimental: as §1, §2

Substrate in series [6]: NC(=O)c1ccc[n+]([C@@H]2O[C@H](COP(=O)([O-])OP(=O)(O)OC[C@H]3O[C@@H](n4cnc5c(N)ncnc54)[C@H](O)[C@@H]3O)[C@@H](O)[C@H]2O)c1
Experimental: as §1, §2
The experiment in a line: SIRT1 deacetylation reaction, trypsin coupled assay with Fluor-de-lys. The settings on record: other: deacetylation, acetyl substrate; pH 8.0; 25.0 °C.

Positions count from the first letter of the chain named. Names may count otherwise.

B1: SIRT5 wild type (Homo sapiens) (protein)
chain: KHIVIISGAGVSAESGVPTFRGAGGYWRKWQAQDLATPLAFAHNPSRVWEFYHYRREVMGSKEPNAGHRAIAECETRLGKQGRRVVVITQNIDELHRKAGTKNLLEIHGSLFKTRCTSCGVVAENYKSPICPALSGKGAPEPGTQDASIPVEKLPRCEEAGCGGLLRPHVVWFGENLDPAILEEVDRELAHCDLCLVVGTSSVVYPAAMFAPQVAARGVPVAEFNTETTPATNRFRFHFQGPCGTTLPEAL
notes: SIRT1 (193–747) and SIRT5 (51–301) were cloned into the pLIC-His expression vector; His tag (pLIC-His vector); made in house; host or cells: E. coli BL21(DE3) Star
As to B1, the Km in series [1] worked out at 69 ± 9 µM.

B2: SIRT5 R105I (Homo sapiens; R105I) (protein)
chain: B1 chain with R55I
notes: as for B1
As for B2, in series [2], the Km was 609 ± 120 µM.

B3: SIRT5 Y102A/R105I (Homo sapiens; R105I/Y102A) (protein)
chain: B1 chain with Y52A, R55I
notes: as for B1
Take B3: the Km in series [3] was determined as 1194 ± 667 µM.

B4: SIRT5 Y102A (Homo sapiens; Y102A) (protein)
chain: B1 chain with Y52A
notes: as for B1
B4: the values for the Km in series [4] and in series [5] were 1605 ± 321 µM and 321 ± 49 µM, respectively.

B5: SIRT1 (Homo sapiens) (protein)
chain: MIGTDPRTILKDLLPETIPPPELDDMTLWQIVINILSEPPKRKKRKDINTIEDAVKLLQECKKIIVLTGAGVSVSCGIPDFRSRDGIYARLAVDFPDLPDPQAMFDIEYFRKDPRPFFKFAKEIYPGQFQPSLCHKFIALSDKEGKLLRNYTQNIDTLEQVAGIQRIIQCHGSFATASCLICKYKVDCEAVRGDIFNQVVPRCPRCPADEPLAIMKPEIVFFGENLPEQFHRAMKYDKDEVDLLIVIGSSLKVRPVALIPSSIPHEVPQILINREPLPHLHFDVELLGDCDVIINELCHRLGGEYAKLCCNPVKLSEITEKPPRTQKELAYLSELPPTPLHVSEDSSSPERTSPPDSSVIVTLLDQAAKSNDDLDVSESKGCMEEKPQEVQTSRNVESIAEQMENPDLKNVGSSTGEKNERTSVAGTVRKCWPNRVAKEQISRRLDGNQYLFLPPNRYIFHGAEVYSDSEDDVLSSSSCGSNSDSGTCQSPSLEEPMEDESEIEEFYNGLEDEPDVPERAGGAGFGTDGDDQEAINEAISVKQEVTDMNYPSNKS
notes: as for B1
For B5, in series [6], the Km is 388 ± 73 µM, the kcat is 0.000579 ± 9.1e-05 s⁻¹ and the kcat/Km came out at 1.63 M⁻¹ s⁻¹.
